Experimental data taken from the DeepSol protein solubility set.

Assay: soluble on expression in E. coli; label from the status in PepcDB or PDB records

Row | Sequence | soluble on expression in E. coli
1 | MSLKVKRPFDAYLDEMNKITILLPHAYGTSRTFRLQEGSNVKDLPIAHTIALPDATKYECFIEEPLDVGKYYTVRDERNEETDLQIGAVIRTAIFDEKYYYEGTDLGAVHQKEATTFKVWAPTARLAKVRIYKSDKEYTDYEMYREENGVWAHTLHGDLAGEKYTFLVCINLIWNEAVDPYAKSVTVNGKYGVVIDLEKTNVTKRGQLPPLQAMTDAILYELHIRDATIHPGSGVSKKGTYKGLMEEGTTGRNGTLTGLSHIKDLGVTHVELLPLYCFGGVDEANPSSAYNWGYNPLYYNAPTGYYATNPSDPYNRIVECKQLIETFHEHGIRVIIDVVYNHVYERELSSFEKLVPGYYFRHGENGMPSNGTGVGNDIASERKMMRKFIVESILYWLTEYNVDGFRFDLMGILDVDTINIIEKEVRNIKRDALLLGEGWDLQTPLPLEEKATLNNAKKMPHIAQFNDQFRDGIKGSTFHINKRGFAFGGYVDCNHLQYIASGSLLSMKETGLFLEPVQSINYVECHDNMTMWDKLMRSNEESEEILKKRHLLATAMVILSQGIPFLHAGQEFYRTKQGNENSYNANDEINQLDWDRKEKEIETVNYIKGLIAIRKEHGAFRLQNADLIKKHMTFLQTSPEVLAYHLEHVESFGPWKEIVVLFNSSLEAKTVQLPKEETWHVLVNEKQAKIEPISSFRGKELRLAPISTYILTIMEGHHHHHH | soluble
2 | MAHHHHHHMKGTLAGYTRGLHGQTKQTALVRVENVNTREDATWYVGKRVCYVYHGKKVKRCVRWSKAPARRSTTRALWGRVTRPHGNAGMMRVKFNGASVPASAIGRRIRVYLYPSQI | soluble
3 | MGHHHHHHSHMRPDCDGWLLLRKAPGGFMGPRWRRRWFVLKGHTLYWYRQPQDEKAEGLINVSNYSLESGHDQKKKYVFQLTHDVYKPFIFAADTLTDLSMWVRHLITCIS | not soluble
4 | MDTPENVLQMLEAHMQSYKGNDPLGEWERYIQWVEENFPENKEYLITLLEHLMKEFLDKKKYHNDPRFISYCLKFAEYNSDLHQFFEFLYNHGIGTLSSPLYIAWAGHLEAQGELQHASAVLQRGIQNQAEPREFLQQQYRLFQTRLTETHLPAQARTSEPLHNVQVLNQMITSKSNPGNNMACISKNQGSELSGVISSACDKESNMERRVITISKSEYSVHSSLASKVDVEQVVMYCKEKLIRGESEFSFEELRAQKYNQRRKHEQWVNEDRHYMKRKEANAFEEQLLKQKMDELHKKLHQVVETSHEDLPASQERSEVNPARMGPSVGSQQELRAPCLPVTYQQTPVNMEKNPREAPPVVPPLANAISAALVSPATSQSIAPPVPLKAQTVTDSMFAVASKDAGCVNKSTHEFKPQSGAEIKEGCETHKVANTSSFHTTPNTSLGMVQATPSKVQPSPTVHTKEALGFIMNMFQAPTLPDISDDKDEWQSLDQNEDAFEAQFQKNVRSSGAWGVNKIISSLSSAFHVFEDGNKENYGLPQPKNKPTGARTFGERSVSRLPSKPKEEVPHAEEFLDDSTVWGIRCNKTLAPSPKSPGDFTSAAQLASTPFHKLPVESVHILEDKENVVAKQCTQATLDSCEENMVVPSRDGKFSPIQEKSPKQALSSHMYSASLLRLSQPAAGGVLTCEAELGVEACRLTDTDAAIAEDPPDAIAGLQAEWMQMSSLGTVDAPNFIVGNPWDDKLIFKLLSGLSKPVSSYPNTFEWQCKLPAIKPKTEFQLGSKLVYVHHLLGEGAFAQVYEATQGDLNDAKNKQKFVLKVQKPANPWEFYIGTQLMERLKPSMQHMFMKFYSAHLFQNGSVLVGELYSYGTLLNAINLYKNTPEKVMPQGLVISFAMRMLYMIEQVHDCEIIHGDIKPDNFILGNGFLEQDDEDDLSAGLALIDLGQSIDMKLFPKGTIFTAKCETSGFQCVEMLSNKPWNYQIDYFGVAATVYCMLFGTYMKVKNEGGECKPEGLFRRLPHLDMWNEFFHVMLNIPDCHHLPSLDLLRQKLKKVFQQHYTNKIRALRNRLIVLLLECKRSRK | soluble
5 | MSLEGEQHSRERDQQAIQYHYDVSNDFYKLWLDERMVYSCAYFPGGQETLDEAQTAKLDYICRKLQLRPGERLLDIGCGWGGLSLYAAQHYGVQVLGVTLSQAQLQEGQARVRVAGLEGQVQLELRDYRDVLSRGPAQFDKIASVGMAEHVGRRNMPEYFRSAYAALKPGGLMLNHAIGDGIGQARVPMWLQSGNFARKYVFPDGELLPVWETLKYASEQLFEVRDVENLREHYALTIGHWAARLEAHRPEALALLGEERLRLWRLYLGATSYYFRKGHLTLFQSLLAKPDAERAVPLPLSRAGLYREGHHHHHH | soluble
6 | MSLAREDYAAQVALLVRVLPYVAKEEIFALKGGTAINLFYRDLPRLSVDIDLTYLPVKDRAESLVEINDAMDRIAAAIEGGITGAKAQRIAGGGGGATRALARLGTAEIKIETSPVTRGVVHDPEQREVSEAVEEEFGYATMNIVSFEDLFGGKLHAALDRQHPRDLYDVKLLYENEGFTDELFRTFLIYVASSPRPPHELLNPNLIDLDQPYAREFEGMTKEAVDLAELIATRDRLIGDIQSRLNDDAKRFLRTLHEGDPDFDAIDRPQGAGLPAVRWKLINVNNPNKNAQAAFTGAVVELLPFCGEGHHHHHH | not soluble
7 | MTSQPLRVGIGGPVGSGKTALTLALCRELRERYNLAVVTNDIYTQEDAEFLVRNEALAPERIIGVETGGCPHTAIREDASINLEAVDQLNRRFPGLELILVESGGDNLSATFSPELSDLTLYVIDVSAGDKIPRKGGPGICKSDLLVINKIDLAPLVGASLDVMDRDARRMRGDKPFVFSNQKTGQGLDEIIAFIERQGLLTAA | not soluble
8 | MVALRGKEIDAFLARPDAGRPIVLLYGPDAGLVRERADALIASAVDDPNDPFSLVRLDGDELSAEPSRLVDEAMTVPLFGGQRAIRVRAGSRSFASGIDTLAEMGVKDCRIVIEAGELRPESPLRKACERAKTAVAIGCYPDTERDLAKLMDDELRIANLRIAQDARAALMSFLGGDRQASRNELRKLTLYAHGKGEITLEDVMAVVADASELKLDPIVDGAFAGRPDIVETEFAKAMIAGTYPGVIISAAQRQAAWLHKSALAIADGQPASAVLDGGFPRLHFSRKPAVETALRNFSVARLAAIIEQLATAALDTRKQSTLAAAIAQRTLMAIAANAKRRGLEHHHHHH | not soluble
9 | METTFALLNFKESLCYIYPPTEPVRYVSSIVALNVHSPNGTGDWHSAKALSDRAYPEKFYIYGENQERNTNHLFGDNGIIDGTDRLNKMGYFPENIPVWLADHPRACVDYLYTAVLQTGSIGRVILDDWFPSDEDKQSVYDLLNQIEPHLNTQEWENLQLWKRKNPIM | not soluble
10 | MGSDKIHHHHHHMLSVNRIVISAAGGGKTTRVVDQALACEQGQGATALITYTRNNVREIQLKAYERTRTIPSHVEVISWYSFLLRELARPYRSAMHASRVDGIHWVEGKSVPYIPEARTSGHYFFDGSRIYSDKIAKFVCECDRRSGGAIMRRLKQRFRHIIIDEIQDMAGYDLDLLELILKAGVPVTFVGDHRQATFATNNASKNKVFSGPAIIKKFELWKKQGLVEIEYETHTHRCNQTIADLGDGFFPNEPKTVSRNDKVTGHDGVFLVSSADVGEYMKRFAPQVLRYSAATNCDLDEAMNFGESKGLTFERVLIYPHGPARKWLASGDIRHVEKSLTKMYVAVTRARYSVAFVHDGKICSVAATKWVPG | not soluble
11 | SVICCAAVNCSNRQGKGEKRAVSFHRFPLKDSKRLIQWLKAVQRDNWTPTKYSFLCSEHFTKDSFSKRLEDQHRLLKPTAVPSIFHLTEKKRGAGGHGRTRRKDASKATGGVRGHSSAATGRGAAGWSPSSSGNPMAKPESRRLKQAALQGEATPRAAQEAASQEQAQQALERTPGDGLATMVAGSQGKAEASATDAGDESATSSIEGGVTDKSGISMDDFTPPGSGACKFIGSLHSYSFSSKHTRERPSVPREPIDRKRLKKDVEPSCSGSSLGPDKGLAQSPPSSSLTATPQKPSQSPSAPPADVTPKPATEAVQSEHSDASPMSINEVILSASGACKLIDSLHSYCFSSRQNKSQVCCLREQVEKKNGELKSLRQRVSRSDSQVRKLQEKLDELRRVSVPYPSSLLSPSREPPKMNPVVEPLSWMLGTWLSDPPGAGTYPTLQPFQYLEEVHISHVGQPMLNFSFNSFHPDTRKPMHRECGFIRLKPDTNKVAFVSAQNTGVVEVEEGEVNGQELCIASHSIARISFAKEPHVEQITRKFRLNSEGKLEQTVSMATTTQPMTQHLHVTYKKVTP | soluble
12 | VTRKSLLERCMEMEKEGYTGCLLSGGMDSRLKVPLDKFKDEIKAIKEKTKLKINAHVGFVDESDLEWLKYIDVVSLDFVGDNEVIKRVYKIDKKVEDYLRVLDLLTENGIRVAPHITIGLDFGKVHWEFKAIDILVNYPIDVLVLDVLIPTPGTEMANVPKVPVDEAIRVVKYAREKFSGELSIGCMRPFGEWRVKFDREAILAGVDRI | not soluble
13 | MKKKILKVATALTIMGGVAFSAEGATAKAELAAKPQQASQAIFKDVPAGHWSYEAIQTLAEQEIMLGYGNGVFGFGHNVTREQVAALIYRALDLDEEFGEDEELESPYNDIVDDNSTMFPFEVLAVTELGIFTGDEKGNFRPKDTLTRAEMAQVLTRAFGLQVQGLAGFKDVPKGHWAENAINAVGSNGISVGDGNGNFAPNMKVTREQYAQFLFRAL | not soluble
14 | MTNQPTEIAIVGGGMVGGALALGLAQHGFSVTVIEHAEPAPFVADSQPDVRISAISAASVSLLKGLGVWDAVQAMRCHPYRRLETWEWETAHVVFDAAELKLPLLGYMVENTVLQQALWQALEAHPKVTLRVPTSLIALHRDNDLQELELKGGETIRAKLVIGADGANSQVRQMAGIGVHAWQYAQSCMLISVQCENDPGDSTWQQFTPDGPRAFLPLFDNWASLVWYDSPTRIRQLQNMNMAQLQAEIAKHFPSRLGYVTPLAAGAFPLTRRHALQYVQPGLALVGDAAHTIHPLAGQGVNLGYRDVDALIDVLVNARSYGEAWASYPVLKRYQMRRMADNFIMQSGMDLFYAGFSNNLPPLRFVRNLGLMAAERAGVLKRQALKYALGLLEHHHHHH | not soluble
15 | MAHHHHHHMYAPFAAQEGNGGMFDFFFSAAASETLCASSAGSNSNNTGIGHGGGEAANGFNAASAGPLVENNNSNDDRVGRLNFDFASFFFQGGQSGAYDDSGLDAAGRGDDGSGADARRSEHYIQRGSADAADSTGKGVLPALGFFFPEDQVAPAAAGGSLILPPTSWCVESAAGADNRYSPPQVQPQNPAAVRETAASLKGDEAAHTVAPPGAALTVLKSDPTHIAPVDQTLVQRLPCEHASSSAMDHECSLAAALAAAPSSLGLLSDEESQRTTVPLSRTSDAEEAKCDETPTRLVAGNSCPEPEARDSSVAEGVAEEDAMPAPTHSRQPPPRVPVVSLPRSSHPPGAAPAGAVVTPTPPSPRQPPAPLTVSTSTPYRPEVPLLIGPAGHDATSVALSKAIGEAEEVWAHRLDMVPITCPERRDAEMGMSCSGFTPSSSSDAVFLAEVAQLQQQTARLTEESARSVTSLQVLTSDLLRILGPHAALSSFAGEQYAGTPLVHLPWALIAVLEGLLNDDADAEEKAEGQLVAPRPSSEGVESGSSGVHDA | not soluble
16 | MKTNVIIDGDACPVVNSVIELTKGTGIFVTILRSFSHFSQQIQPEHVKIVYVDDGPDAVDYKIVELASNNDIVITQDYGLASLLIDKVHTVMHHKGNIYHSNNIQSLLDQRYLNAQIRRRGLEHHHHHH | not soluble
17 | MVCGKKRVGEELRCKSCGSPFEIRTGFHYRENIEDNFPYIKNMISLGESETPIFHGDDFDLKLDYMLPTFSYKDRGSRILISHIADIRDSYGITRISEDSSGNAGASIAAYGSAAGLAVDIYVPETVAGRKFSQIQAYGANVIKVKGSREDVQSAAERSESFYASHVLRPEFRDGIRTLAYEIYRQYDRMPRNIYIPVSAGTLLLGLYSGLRHLMESGEIAEMPAIVAVQTEAVSPLCAKINGLNYDPDNKLSSIADALVSRKPVLLQKMYQVISEYGRCMTVSDDEIIEARNRLAKKGFLVEYSSATVYAAFRKKPQENSLLVLTGSGLKNDS | not soluble
